This note sets out measurements from patent publication US6994959, “G-rich oligo aptamers and methods of modulating an immune response” (Valeant Research & Development).

The target of series [1] is T1, Sp1 (UniProt P08047 P08047:2-785). Description: competition; control oligo did not compete; about 70-100 molar excess. As to conditions: tags: Promega purified Sp1. The protocol: (§1) In an effort to restrict the precise Sp1 binding region in 28b to the G-rich motif in the CD28 promoter region –197 to +28, we synthesized a double stranded (ds) 30mer oligo called 28b oligo (Seq #1 Table 1) which contains the 12mer GGGGAGGAGGGG within its sequence. We hypothesized that this was a Sp1 binding site in the CD28 promoter region. Following 32P-labeling, 28b oligo was incubated with Sp1 extract and indeed they bind to each other (FIG. 5, band A, lane 2 and 3). Competition with cold ds 28b oligo caused the band to disappear showing indeed that the binding was specific to Sp1 (lane 4). […] The consequence of this interaction is the prevention of Sp1 binding to the Sp1 site at –51 to –22 in the promoter region and which inhibits Sp1-mediated transcription of the CD28 gene and decreases expression of the mature CD28 protein.

In series [2] the target is T1, Sp1. The series is described as follows: EMSA; band A; competed by cold ds 28b oligo; room temperature. The note with it: tags: Promega purified Sp1; label: 32P. The protocol:
as §1

Series [3] concerns the target T1, Sp1. Description: competition; competes with 32P ds 28b oligo; about 70-100 molar excess. The note with it: tags: Promega purified Sp1. Here is the method:
as §1

T1 sequence (P08047 2-785, one chain of several): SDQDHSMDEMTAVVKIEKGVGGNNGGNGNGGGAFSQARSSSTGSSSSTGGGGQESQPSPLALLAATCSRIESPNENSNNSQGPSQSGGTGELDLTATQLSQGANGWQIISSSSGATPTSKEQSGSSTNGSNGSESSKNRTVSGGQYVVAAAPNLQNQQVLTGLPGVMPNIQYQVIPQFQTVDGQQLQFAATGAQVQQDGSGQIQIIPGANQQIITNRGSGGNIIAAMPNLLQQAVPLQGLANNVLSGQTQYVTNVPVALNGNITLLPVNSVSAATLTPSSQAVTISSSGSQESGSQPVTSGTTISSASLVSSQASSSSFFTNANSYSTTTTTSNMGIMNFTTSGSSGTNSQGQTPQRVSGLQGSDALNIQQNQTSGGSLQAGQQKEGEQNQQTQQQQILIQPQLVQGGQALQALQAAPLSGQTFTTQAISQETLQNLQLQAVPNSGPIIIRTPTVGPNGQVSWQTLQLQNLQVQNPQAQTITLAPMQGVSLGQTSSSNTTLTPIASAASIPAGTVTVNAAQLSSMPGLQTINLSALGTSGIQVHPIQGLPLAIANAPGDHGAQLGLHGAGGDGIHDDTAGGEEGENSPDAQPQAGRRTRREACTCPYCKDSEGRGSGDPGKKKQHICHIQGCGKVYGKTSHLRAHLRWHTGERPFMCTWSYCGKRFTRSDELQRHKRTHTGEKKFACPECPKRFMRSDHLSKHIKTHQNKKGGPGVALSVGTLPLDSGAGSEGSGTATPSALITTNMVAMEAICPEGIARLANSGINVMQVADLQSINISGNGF

B1: ICN 16476 (ssDNA)
DNA: TTCCAGCCCCTCCTCCCC
modifications: PS all linkages
As to B1, the binding result in series [1] is “no binding”.

B2: 28b oligo (-51 to -22) (dsDNA)
DNA 1: GGGTTCCTCGGGGAGGAGGGGCTGGAACCC
DNA 2: GGGTTCCAGCCCCTCCTCCCCGAGGAACCC
With B2, the binding result in series [2] was “binds”.

B3: ICN 16481 (ssDNA)
DNA: GGGGAGGAGGGGCTGGAA
modifications: PS all linkages
As to B3, in series [3], the binding result is “binds”.

B4: ICN 16064 (ssDNA)
DNA: TTGGAGGGGGTGGTGGGG
modifications: PS all linkages
Turning to B4, the binding result in series [3] was “binds”.
